Values quoted from earlier work in article PMC8620506.

Target: NS4B (Dengue virus) (UniProt P27909)

For NS4A (from UniProt P27909), the Kd is given as 50 nM.
